From publication PMC11853100, “Structural analysis of extracellular ATP-independent chaperones of streptococcal species and protein substrate interactions” (mSphere, 2025)

B1: Streptococcus pneumoniae PrsA (enzyme)
chain: GADLISMKGDVITEHQFYEQVKNNPSAQQVLLNMTIQKVFEKQYGSELDDKEVDDTIAEEKKQYGENYQRVLSQAGMTLETRKAQIRTSKLVELAVKKVAEAELTDEAYKKAFDEYTPDVTAQIIRLNNEDKAKEVLEKAKAEGADFAQLAKDNSTDEKTKENGGEITFDSASTEVPEQVKKAAFALDVDGVSDVITATGTQAYSSQYYIVKLTKKTEKSSNIDDYKEKLKTVILTQKQNDSTFVQSIIGKELQAANIKVKDQAFQNIFTQYIGGGDSSSSSSTSNE
notes: also called SpnPrsA; hexa-his-tagged SpnPrsA; not shown: His6, N-terminal, kept
B2: Streptococcus mutans PrsA (enzyme)
chain: ACSKTNQNSKIATMKGDTITVADFYNEVKNSTASKQAVLSLLVSKVFEKQYGDKVSDKEVTKAYNEAAKYYGDSFSSALASRGYTKEDYKKQIRSEKLIEYAVKEEAKKEITDASYKSAYKDYKPEVTAQVIQLDSEDKAKSVLEEAKADGADFAKIAKDNTKGDKTEYSFDSGSTNLPSQVLSAALNLDKDGVSDVIKASDSTTYKPVYYIVKITKKTDKNADWKAYKKRLKEIIVSQKLNDSNFRNAVIGKAFKKANVKIKDKAFSEILSQY
notes: also called SmuPrsA
B3: Streptococcus pneumoniae pneumolysin, recombinant (natural protein)
chain: ANKAVNDFILAMNYDKKKLLTHQGESIENRFIKEGNQLPDEFVVIERKKRSLSTNTSDISVTATNDSRLYPGALLVVDETLLENNPTLLAVDRAPMTYSIDLPGLASSDSFLQVEDPSNSSVRGAVNDLLAKWHQDYGQVNNVPARMQYEKITAHSMEQLKVKFGSDFEKTGNSLDIDFNSVHSGEKQIQIVNFKQIYYTVSVDAVKNPGDVFQDTVTVEDLKQRGISAERPLVYISSVAYGRQVYLKLETTSKSDEVEAAFEALIKGVKVAPQTEWKQILDNTEVKAVILGGDPSSGARVVTGKVDMVEDLIQEGSRFTADHPGLPISYTTSFLRDNVVATFQNSTDYVETKVTAYRNGDLLLDHSGAYVAQYYITWDELSYDHQGKEVLTPKAWDRNGQDLTAHFTTSIPLKGNVRNLSVKIRECTGLAWEWWRTVYEKTDLPLVRKRTISIWGTTLYPQVEDKVEND
notes: pneumolysin of S. pneumoniae strain R6, residues 2-471 of WP_001284359.1; pQE30 vector; In the folding assays it was denatured in 8 M urea and then diluted; also called Ply; Ply toxin

Legend:
[1] = biological target: the molecule itself; assay: crystal structure; X-ray structures of SpnPrsA (2.55 A) and SmuPrsA (3.15 A); dimers in the crystal
[2] = biological target: B3; assay: MST; chaperone labelled with red NHS dye kept at 20 nM, unlabelled protein in serial dilution; pH 6.5, 0.05% Tween 20, 25 C; 1:1 model in PALMIST, 95% CI; settings: both partners purified
bovine serum albumin = biological target: T1, bovine serum albumin (bovine, UniProt P02769 25-607); assay: as above; settings: both partners purified
T1 construct: also called BSA
T1 sequence (P02769 25-607): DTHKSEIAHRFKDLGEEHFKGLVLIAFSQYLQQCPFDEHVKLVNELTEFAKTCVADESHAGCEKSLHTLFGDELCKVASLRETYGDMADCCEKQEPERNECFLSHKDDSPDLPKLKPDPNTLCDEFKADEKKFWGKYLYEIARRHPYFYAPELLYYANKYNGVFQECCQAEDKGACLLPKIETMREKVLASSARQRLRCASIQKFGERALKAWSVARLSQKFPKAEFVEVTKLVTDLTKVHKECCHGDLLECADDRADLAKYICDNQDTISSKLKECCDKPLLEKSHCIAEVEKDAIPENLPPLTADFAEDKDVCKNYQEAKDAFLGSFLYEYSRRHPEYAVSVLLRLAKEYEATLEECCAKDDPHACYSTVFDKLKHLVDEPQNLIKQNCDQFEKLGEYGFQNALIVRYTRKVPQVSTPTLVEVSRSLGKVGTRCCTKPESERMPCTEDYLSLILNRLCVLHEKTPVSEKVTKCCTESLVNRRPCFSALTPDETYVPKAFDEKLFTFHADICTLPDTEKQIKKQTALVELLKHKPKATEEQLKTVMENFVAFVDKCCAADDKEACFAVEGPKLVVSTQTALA

[3] = biological target: B3; assay: ITC; chaperone in the syringe, Ply in the sample cell; 20 mM MES, 100 mM NaCl, 1 mM beta-mercaptoethanol, 10% glycerol, pH 6.5, 25 C; independent binding model; settings: both partners purified
[4] = biological target: T2, Streptococcus pneumoniae SlrA (Streptococcus pneumoniae strain R6, UniProt Q8DQG5 19-267); assay: MST; chaperone labelled with red NHS dye kept at 20 nM, unlabelled protein in serial dilution; pH 6.5, 0.05% Tween 20, 25 C; 1:1 model in PALMIST, 95% CI; settings: both partners purified
T2 construct: also called SpnSlrA; hexa-his-tagged SpnSlrA; source: E. coli BL21 (DE3), expressed and purified similarly to Ply (Ni-NTA, dialysis); not shown: His6, N-terminal, kept

[5] = biological target: T2, Streptococcus pneumoniae SlrA; assay: ITC; chaperone in the syringe, Ply in the sample cell; 20 mM MES, 100 mM NaCl, 1 mM beta-mercaptoethanol, 10% glycerol, pH 6.5, 25 C; independent binding model; settings: both partners purified

| Binder | binding result [1] | Kd [2] | Kd (bovine serum albumin) | Ka [3] | Kd [3] | dH [3] | stoichiometry N [3] | Kd [4] | Ka [5] | Kd [5] |
| --- | --- | --- | --- | --- | --- | --- | --- | --- | --- | --- |
| B1 | binds | 70 nM | 62000 ± 58000 nM | 8.38e+06 M⁻¹ | 119 ± 25.9 nM | -100 ± 3.74 kcal/mol | 1.85 |  |  |  |
| B2 | binds |  |  |  |  |  |  |  |  |  |
| B3 |  |  |  |  |  |  |  | 60 nM | 1.23e+07 M⁻¹ | 81.2 ± 18 nM |
